Assay [1] deals with T1, recombinant biotinylated CD71 extracellular domain (Sino Biologics) with an N-terminal 6His tag (human, UniProt P02786 89-760, biotinylated (sites not given)).
T1 construct: extracellular domain; also called hCD71; huCD71
In words: screening ELISA, ratio. A general note: In an ELISA, binding on a coated surface is turned into a signal by an enzyme label.

Assay [2] addresses T1, recombinant biotinylated CD71 …. In words: screening ELISA.

T1 sequence (P02786 other isoform, or with tags, fused parts or gaps): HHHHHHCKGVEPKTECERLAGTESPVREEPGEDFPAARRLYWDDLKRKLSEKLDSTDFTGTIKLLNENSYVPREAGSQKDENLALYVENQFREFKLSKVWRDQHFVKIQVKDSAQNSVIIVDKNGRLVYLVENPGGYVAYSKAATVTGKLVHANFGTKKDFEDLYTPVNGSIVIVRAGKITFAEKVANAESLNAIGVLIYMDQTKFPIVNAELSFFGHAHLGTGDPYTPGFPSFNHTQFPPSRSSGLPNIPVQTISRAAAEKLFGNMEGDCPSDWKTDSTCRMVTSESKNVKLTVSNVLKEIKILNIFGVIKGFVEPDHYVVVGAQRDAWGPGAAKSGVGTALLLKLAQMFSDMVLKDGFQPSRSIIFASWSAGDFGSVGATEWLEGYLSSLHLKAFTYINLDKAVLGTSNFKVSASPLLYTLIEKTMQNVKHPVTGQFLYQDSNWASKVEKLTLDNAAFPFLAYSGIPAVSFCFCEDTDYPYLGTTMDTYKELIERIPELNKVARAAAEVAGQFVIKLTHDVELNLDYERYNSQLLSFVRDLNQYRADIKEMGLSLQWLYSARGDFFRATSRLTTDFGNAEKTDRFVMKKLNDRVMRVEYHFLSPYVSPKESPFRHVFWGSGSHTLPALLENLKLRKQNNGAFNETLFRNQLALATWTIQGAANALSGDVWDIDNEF

B1: SEQ ID NO 183 (designed binder)
chain: MLPAPKNLVVSRVTEDSARLSWTAPDAAFDSFLIPYAETSPSGEAIVLTVPGSERSYDLTGLKPGTEYSVLIHGVKGGRPSNPLVAAFTT
notes: FN3 domain
As for B1, the “hCD71:HSA” value in assay [1] turned out to be 161. Also, in assay [2], the hCD71 was determined as 1.72e+06.

B2: SEQ ID NO 254 (designed binder)
chain: MLPAPKNLVVSRVTEDSARLSWTAPDAAFDSFFIPYAEPSPTGEAIVLTVPGSERSYDLTGLKPGTEYSVLIHGVKGGHLSDPLSAISTT
notes: FN3 domain
As to B2, the “hCD71:HSA” value in assay [1] was determined as 36. Further, the hCD71 in assay [2] stood at 3.24e+06.

B3: SEQ ID NO 255 (designed binder)
chain: MLPAPKNLVVSRVTEDSARLSWTAPDAAFDSFDIEYYELIGRGEAIVLTVPGSERSYDLTGLKPGTEYWVGIYGVKGGWLSRPLSAIFTT
notes: FN3 domain
In the case of B3, the “hCD71:HSA” value in assay [1] was 403. In addition, the hCD71 in assay [2] came out at 1.84e+06.

B4: SEQ ID NO 188 (designed binder)
chain: MLPAPKNLVVSRVTEDSARLSWTAPDAAFDSFLIPYAETSPSGEAIVLTVPGSERSYDLTGLKPGTEYSVLIHGVKGGKLSLPLSAIFTT
notes: FN3 domain
Take B4: the “hCD71:HSA” value in assay [1] turned out to be 797. Further, the hCD71 in assay [2] stood at 2.67e+06.

B5: SEQ ID NO 264 (designed binder)
chain: MLPAPKNLVVSRVTEDSARLSWTAPDAAFDSFRIKYQEWWVEGEAIVLTVPGSERSYDLTGLKPGTEYVVQIAGVKGGLSSYPLSAIFTT
notes: FN3 domain
As for B5, in assay [1], the “hCD71:HSA” value is 1170. Also, the hCD71 in assay [2] was determined as 2.98e+06.

B6: SEQ ID NO 246 (designed binder)
chain: MLPAPKNLVVSRVTEDSARLSWTAPDAAFDSFTIAYNEQNHYGEAIVLTVPGSERSYDLTGLKPGTEYGVWIEGVKGGTLSWPLSAIFTT
notes: FN3 domain
For B6, in assay [1], the “hCD71:HSA” value worked out at 1120. Moreover, the hCD71 in assay [2] turned out to be 1.57e+06.

B7: SEQ ID NO 200 (designed binder)
chain: MLPAPKNLVVSRVTEDSARLSWTAPDAAFDSFYIEYYEWMHTGEAIVLTVPGSERSYDLTGLKPGTEYSVYIYGVKGGYPSSPLSAIFTT
notes: FN3 domain
For the molecule B7, the “hCD71:HSA” value in assay [1] came out at 1730. Moreover, the hCD71 in assay [2] turned out to be 3.63e+06.

B8: SEQ ID NO 185 (designed binder)
chain: MLPAPKNLVVSRVTEDSARLSWTAPDAAFDSFEIDYDELAIYGEAIVLTVPGSERSYDLTGLKPGTEYGVMIIGVKGGLPSDPLSAIFTT
notes: FN3 domain
For the molecule B8, the “hCD71:HSA” value in assay [1] came out at 182. Further, in assay [2], the hCD71 is 1.81e+06.

B9: SEQ ID NO 245 (designed binder)
chain: MLPAPKNLVVSRITEDSARLSWTAPDAAFDSFGIAYNEGDHYGEAIVLTVPGSERSYDLTGLKPGTEYSVWIEGVKGGNLSYPLSAIFTT
notes: FN3 domain
With B9, the “hCD71:HSA” value in assay [1] was determined as 903. Also, the hCD71 in assay [2] worked out at 2.62e+06.

B10: SEQ ID NO 210 (designed binder)
chain: MLPAPKNLVVSRVTEDSARLSWTAPDAAFDSFSIVYGERFVNGEAIVLTVPGSERSYDLTGLKPGTEYHVYIDGVKGGDLSWPLSAIFTT
notes: FN3 domain
For B10, the “hCD71:HSA” value in assay [1] was found to be 514. The hCD71 in assay [2] turned out to be 1.16e+06.

B11: SEQ ID NO 251 (designed binder)
chain: MLPAPKNLVVSRVTEDSARLSWTAPDAAFDSFFIGYLEPQPPGEAIVLTVPGSERSYDLTGLKPGTEYNVTIQGVKGGFPSMPLSAIVTT
notes: FN3 domain
For B11, the “hCD71:HSA” value in assay [1] is 284. For the same molecule, the hCD71 in assay [2] came to 2.74e+06.

B12: SEQ ID NO 207 (designed binder)
chain: MLPAPKNLVVSRVTEDSARLSWTAPDAAFDSFFIGYLEPQPPGEAIVLTVPGSERSYDLTGLKPGTEYNVTIQGVKGGTPSEPLSAISTT
notes: FN3 domain
Take B12: in assay [1], the “hCD71:HSA” value was 62. Further, the hCD71 in assay [2] was 1.6e+06.

B13: SEQ ID NO 211 (designed binder)
chain: MLPAPKNLVVSRVTEDSARLSWTAPDAAFDSFWINYYEAQPDGEAIVLTVPGSERSYDLTGLKPGTEYDVEIAGVKGGTASLPLSAIFTT
notes: FN3 domain
Take B13: in assay [1], the “hCD71:HSA” value was 334. The hCD71 in assay [2] is 1e+06.

B14: SEQ ID NO 223 (designed binder)
chain: MLPAPKNLVVSRVTEDSARLSWTAPDAAFDSFTIWYAEALGDGEAIVLTVPGSERSYDLTGLKPGTEYFVDIPGVKGGTRSSPLSAISTT
notes: FN3 domain
As to B14, in assay [1], the “hCD71:HSA” value came to 32. In addition, in assay [2], the hCD71 is 1.67e+06.

B15: SEQ ID NO 243 (designed binder)
chain: MLPAPKNLVVSRVTEDSARLSWTAPDAAFDSFAIPYYEWVNHGEAIVLTVPGSERSYDLTGLKPGTEYPVGIDGVKGGGPSWPLSAIFTT
notes: FN3 domain
As for B15, the “hCD71:HSA” value in assay [1] amounted to 237. The hCD71 in assay [2] worked out at 2.4e+06.

B16: SEQ ID NO 198 (designed binder)
chain: MLPAPKNLVVSRVTEDSARLSWTAPDAAFDSFLIAYNEDRKFGEAIVLTVPGSERSYDLTGLKPGTEYDVWIEGVKGGSLSFPLSAIFTT
notes: FN3 domain
As to B16, in assay [1], the “hCD71:HSA” value amounted to 1130. For the same molecule, the hCD71 in assay [2] was 3.44e+06.

B17: SEQ ID NO 205 (designed binder)
chain: MLPAPKNLVVSRVTEDSARLSWTAPDAAFDSFDIDYDEPAWNGEAIVLTVPGSERSYDLTGLKPGTEYRVFIYGVKGGNTSWPLSAIFTT
notes: FN3 domain
B17: in assay [1], the “hCD71:HSA” value was 130. The hCD71 in assay [2] was 434000.

B18: SEQ ID NO 216 (designed binder)
chain: MLPAPKNLVVSRVTEDSARLSWTAPDAAFDSFPIAYAEPTPSGEAIVLTVPGSERSYDLTGLKPGTEYSVLIHGVKGGGLSLPLSAIFTT
notes: FN3 domain
For B18, in assay [1], the “hCD71:HSA” value turned out to be 101. Besides, the hCD71 in assay [2] was determined as 2.19e+06.

B19: SEQ ID NO 262 (designed binder)
chain: MLPAPKNLVVSRVTEDSARLSWTAPDAAFDSFAIEYFEYTGEGEAIVLTVPGSERSYDLTGLKPGTEYYVGIYGVKGGYLSRPLSAIFTT
notes: FN3 domain
Consider B19, for which the “hCD71:HSA” value in assay [1] worked out at 1860. The hCD71 in assay [2] is 4.38e+06.

B20: SEQ ID NO 228 (designed binder)
chain: MLPAPKNLVVSRVTEDSARLSWTAPDAAFDSFEIYYVEWSEAGEAIVLTVPGSERSYDLTGLKPGTEYRVEIRGVKGGSWSSPLSAIFTT
notes: FN3 domain
In the case of B20, the “hCD71:HSA” value in assay [1] was 1060. In assay [2], the hCD71 came out at 2.54e+06.

B21: SEQ ID NO 263 (designed binder)
chain: MLPAPKNLVVSRVTEDSARLSWTAPDAAFDSFFIGYLEPQPPGEAIVLTVPGSERSYDLTGLKPGTEYNVTIQGVKGGFPSMPLSAISTT
notes: FN3 domain
Consider B21, for which the “hCD71:HSA” value in assay [1] turned out to be 92. Besides, the hCD71 in assay [2] was 1.88e+06.

B22: SEQ ID NO 256 (designed binder)
chain: MLPAPKNLVVSRVTEDSARLSWTAPDAAFDSFHIVYHEPRPSGEAIVLTVPGSERSYDLTGLKPGTEYEVGIVGVKGGDLSVPLSAIFTT
notes: FN3 domain
B22: the “hCD71:HSA” value in assay [1] amounted to 900. The hCD71 in assay [2] was found to be 1.98e+06.

B23: SEQ ID NO 193 (designed binder)
chain: MLPAPKNLVVSRVTEDSARLSWTAPDAAFDSFTIWYAEAVGNGEAIVLTVPGSERSYDLTGLKPGTEYWVDIWGVKGGEFSSPLSAIFTT
notes: FN3 domain
Take B23: in assay [1], the “hCD71:HSA” value was determined as 1550. Also, the hCD71 in assay [2] was found to be 3.87e+06.

B24: SEQ ID NO 219 (designed binder)
chain: MLPAPKNLVVSRVTEDSARLSWTAPDAAFDSFHIDYLELTYAGEAIVLTVPGSERSYDLTGLKPGTEYYVTIYGVKGGYPSSPLSAIFTT
notes: FN3 domain
Turning to B24, in assay [1], the “hCD71:HSA” value turned out to be 1270. In addition, in assay [2], the hCD71 was 3.31e+06.

B25: SEQ ID NO 202 (designed binder)
chain: MLPAPKNLVVSRVTEDSARLSWTAPDAAFDSFYIDYLELTYSGEAIVLTVPGSERSYDLTGLKPGTEYYVYIYGVKGGYPSSPLSAIFTT
notes: FN3 domain
With B25, the “hCD71:HSA” value in assay [1] turned out to be 1610. In assay [2], the hCD71 turned out to be 4.5e+06.

B26: SEQ ID NO 258 (designed binder)
chain: MLPAPKNLVVSRVTEDSARLSWTAPDAAFDSFFIPYAEPSPTGEAIVLTVPGSERSYDLTGLKPGTEYDVWIEGVKGGVLSWPLSAIFTT
notes: FN3 domain
As to B26, the “hCD71:HSA” value in assay [1] was determined as 98. Besides, in assay [2], the hCD71 stood at 1.04e+06.

B27: SEQ ID NO 236 (designed binder)
chain: MLPAPKNLVVSRVTEDSARLSWTAPDAAFDSFWIEYYEELGSGEAIVLTVPGSERSYDLTGLKPGTEYRVYIYGVKGGYPSSPLSAIFTT
notes: FN3 domain
As for B27, the “hCD71:HSA” value in assay [1] worked out at 2300. Further, in assay [2], the hCD71 was found to be 3.44e+06.

B28: SEQ ID NO 215 (designed binder)
chain: MLPAPKNLVVSRVTEDSARLSWTAPDAAFDSFLIPYAETSPTGEAIVLTVPGSERSYDLTGLKPGTEYSVLIHGVKGGYPSSPLSAIFTT
notes: FN3 domain
On to B28, for which the “hCD71:HSA” value in assay [1] was determined as 1210. Besides, the hCD71 in assay [2] came to 2.13e+06.

B29: SEQ ID NO 250 (designed binder)
chain: MLPAPKNLVVSRVTEDSARLSWTAPDAAFDSFFIGYLEPYPPGEAIVLTVPGSERSYDLTGLKPGTEYAVEIAGVKGGLLSSPLSAISTT
notes: FN3 domain
Regarding B29, in assay [1], the “hCD71:HSA” value was determined as 58. Moreover, in assay [2], the hCD71 turned out to be 1.09e+06.

B30: SEQ ID NO 240 (designed binder)
chain: MLPAPKNLVVSRVTEDSARLSWTAPDAAFDSFRIKYLEWWLGGEAIVLTVPGSERSYDLTGLKPGTEYWVDIQGVKGGVLSWPLSAIFTT
notes: FN3 domain
In the case of B30, the “hCD71:HSA” value in assay [1] amounted to 1480. Also, in assay [2], the hCD71 worked out at 3.03e+06.

B31: SEQ ID NO 195 (designed binder)
chain: MLPAPKNLVVSRVTEDSARLSWTAPDAAFDSFPIEYDEIPFWGEAIVLTVPGSERSYDLTGLKPGTEYRVWIHGVKGGNSSWPLSAIFTT
notes: FN3 domain
For B31, in assay [1], the “hCD71:HSA” value was determined as 28. Besides, the hCD71 in assay [2] stood at 2.53e+06.

B32: SEQ ID NO 187 (designed binder)
chain: MLPAPKNLVVSRVTEDSARLSWTAPDAAFDSFVIEYFEFVGYGEAIVLTVPGSERSYDLTGLKPGTEYSVGIYGVKGGKLSPPLSAIFTT
notes: FN3 domain
Turning to B32, the “hCD71:HSA” value in assay [1] worked out at 422. Besides, the hCD71 in assay [2] came to 3.06e+06.

B33: SEQ ID NO 192 (designed binder)
chain: MLPAPKNLVVSRVTEDSARLSWTALDAAFDSFFIGYLEPQPPGEAIVLTVPGSERSYDLTGLKPGTEYNVTIQGVKGGFPSMPLSAIFTT
notes: FN3 domain
As for B33, the “hCD71:HSA” value in assay [1] stood at 650. Besides, in assay [2], the hCD71 came out at 2.67e+06.

The values above are taken from patent US20210145976A1 (ARO BIOTHERAPEUTICS, published 2021).
